According to the supplement of paper PMC7125110:
± gives the standard error. This sample holds only a part of the variants without activity.

B1: glmS ribozyme (parent)
chain: AUAAAAGCGCCAGAACUACAGAAAUGUAGUUGACGAGGAGGAGGUUUAUCGAAUUUUCGGCGGAUGCCUCCAAA

Variants of: B1
Test: self-cleavage kobs at 10000 uM GlcN6P; higher = faster cleavage; RNA array
Details: with glucosamine-6-phosphate
How it was run: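 kobs was derived by fitting per-tile medians to one- or two-exponential decays after normalising signals to baseline and to non-cleaving reference variants. Those signals came from barcoded ribozyme variants transcribed in situ by E. coli RNA polymerase on sequenced MiSeq chips, followed through a hybridised Cy3 probe at 37 °C and imaged over ~14 h. Glucosamine-6-phosphate (40 μM to 10 mM) in HEPES/KCl/Mg(OAc)2 buffer was flowed in. Weighted Michaelis–Menten fits across concentrations then gave kcat and KM.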

Row | Variant | self-cleavage kobs at 10000 uM GlcN6P
1 | U46G C68U C71U | 8.22e-05 ± 1.3e-05 s⁻¹
2 | U31A G43C C68U | 0.000192 ± 5.2e-05 s⁻¹
3 | U31A U46G | 0.00387 ± 0.0007 s⁻¹
4 | G35C G43C | < 1e-05 s⁻¹
5 | G59C G66A | < 1e-05 s⁻¹
6 | A33C G43A G44C C61A C67U | < 1e-05 s⁻¹
7 | A52U U55G A64U | < 1e-05 s⁻¹
8 | U47A A53U C58A | 0.000151 ± 3e-05 s⁻¹
9 | A39C G44C C68A | < 1e-05 s⁻¹
10 | G35C G44A U46G | < 1e-05 s⁻¹
11 | G32C U56A C71A | 3.09e-05 ± 1.5e-05 s⁻¹
12 | G32C A48C U55C G59A G63A | < 1e-05 s⁻¹
13 | G38A G43C U65G | < 1e-05 s⁻¹
14 | G43A U57C G59U A64U | < 1e-05 s⁻¹
15 | G38A G59C U65C C70A | < 1e-05 s⁻¹
16 | G37U C58G | < 1e-05 s⁻¹
17 | U45A U56A | 0.0179 ± 0.0079 s⁻¹
18 | A42C G44C G51U G66A | < 1e-05 s⁻¹
19 | U46G C61G C71G | 4.27e-05 ± 1.8e-05 s⁻¹
20 | A42G U55C G60A | 4.43e-05 ± 1.7e-05 s⁻¹
21 | U31C C58A G63U | < 1e-05 s⁻¹

Row | Variant | self-cleavage kobs at 10000 uM GlcN6P
22 | G51C G60U C71A | < 1e-05 s⁻¹
23 | U54A C67U C70A | 4.02e-05 ± 1.6e-05 s⁻¹
24 | U31A A39G U55C | 0.0297 ± 0.011 s⁻¹
25 | G40C A64G C71U | 0.00117 ± 0.00019 s⁻¹
26 | U30G A39C U56A C70G | < 1e-05 s⁻¹
27 | G44A C58A C67U | 0.000308 ± 6.5e-05 s⁻¹
28 | U57A A64G | 0.000214 ± 4.6e-05 s⁻¹
29 | A33U A42C U49A C58G C61G | < 1e-05 s⁻¹
30 | G40A G51U C68U | < 1e-05 s⁻¹
31 | G38A A52U U56G | < 1e-05 s⁻¹
32 | G40U G43U G62A | < 1e-05 s⁻¹
33 | A36U A52U U65G U69C | < 1e-05 s⁻¹
34 | A33C A36G U47G G51A | < 1e-05 s⁻¹
35 | G44U G66C C71A | < 1e-05 s⁻¹
36 | G40A C67A C70A | 0.0001 ± 2.9e-05 s⁻¹
37 | A36C U54A G59A | < 1e-05 s⁻¹
38 | C50G A53C C71A | 6.73e-05 ± 2.7e-05 s⁻¹
39 | A39U G44A C67G | 0.00582 ± 0.0014 s⁻¹
40 | U46C U49A | < 1e-05 s⁻¹
41 | G35C A48U C70G | < 1e-05 s⁻¹
42 | A39U U55C A64G | 0.0229 ± 0.0073 s⁻¹

Row | Variant | self-cleavage kobs at 10000 uM GlcN6P
43 | U57C U65C C71A | < 1e-05 s⁻¹
44 | G37A A39G U54G U55A | 0.00276 ± 0.00061 s⁻¹
45 | A48G C58U A64U | < 1e-05 s⁻¹
46 | A36C U56C | < 1e-05 s⁻¹
47 | U57A G60A C61A | < 1e-05 s⁻¹
48 | G51C U54G C70A | < 1e-05 s⁻¹
49 | G32U A52G C70A | 8.27e-05 ± 2.1e-05 s⁻¹
50 | U45G G59U | 4.05e-05 ± 1.2e-05 s⁻¹
51 | U45G G59A | 7.24e-05 ± 1.4e-05 s⁻¹
52 | A53G U57G C67G C68A | < 1e-05 s⁻¹
53 | G43C G62C A64G C68G | < 1e-05 s⁻¹
54 | G32U U57A | 6.86e-05 ± 8.1e-06 s⁻¹
55 | U45A U54A C70A | 8.25e-05 ± 1.9e-05 s⁻¹
56 | G38C U45C U49A A53U | < 1e-05 s⁻¹
57 | G38U C50G C67A C71G | 0.000322 ± 6.1e-05 s⁻¹
58 | C50G G63U U65A U69G | 0.000121 ± 2.7e-05 s⁻¹
59 | A39C G40A C58G | < 1e-05 s⁻¹
60 | G35C G51U C58U C61G A64G U65A | < 1e-05 s⁻¹
61 | A33C A52G U54A | < 1e-05 s⁻¹
62 | A39G G43U G44U C67G | 5.34e-05 ± 1.9e-05 s⁻¹
